Measurements: article doi:10.1101/2022.06.02.494603
Changes are numbered by the printed parent chain. Names may count otherwise.

B1: TBK1 p.E696K, untagged, Q9UHD2 1-729 (natural protein)
chain: MQSTSNHLWLLSDILGQGATANVFRGRHKKTGDLFAIKVFNNISFLRPVDVQMREFEVLKKLNHKNIVKLFAIEEETTTRHKVLIMEFCPCGSLYTVLEEPSNAYGLPESEFLIVLRDVVGGMNHLRENGIVHRDIKPGNIMRVIGEDGQSVYKLTDFGAARELEDDEQFVSLYGTEEYLHPDMYERAVLRKDHQKKYGATVDLWSIGVTFYHAATGSLPFRPFEGPRRNKEVMYKIITGKPSGAISGVQKAENGPIDWSGDMPVSCSLSRGLQVLLTPVLANILEADQEKCWGFDQFFAETSDILHRMVIHVFSLQQMTAHKIYIHSYNTATIFHELVYKQTKIISSNQELIYEGRRLVLEPGRLAQHFPKTTEENPIFVVSREPLNTIGLIYEKISLPKVHPRYDLDGDASMAKAITGVVCYACRIASTLLLYQELMRKGIRWLIELIKDDYNETVHKKTEVVITLDFCIRNIEKTVKVYEKLMKINLEAAELGEISDIHTKLLRLSSSQGTIETSLQDIDSRLSPGGSLADAWAHQEGTHPKDRNVEKLQVLLNCMTEIYYQFKKDKAERRLAYNEEQIHKFDKQKLYYHATKAMTHFTDECVKKYEAFLNKSEEWIRKMLHLRKQLLSLTNQCFDIEEEVSKYQEYTNELQETLPQKMFTASSGIKHTMTPIYPSSNTLVEMTLGMKKLKEKMEGVVKELAENNHILERFGSLTMDGGLRNVDCL
B2: TBK1 G217R, untagged, Q9UHD2 1-729 (natural protein)
chain: B1 chain with G217R, K696E

Target: optineurin, C-terminal myc-FLAG-tagged, Q96CV9
Sequence (Q96CV9 whole entry): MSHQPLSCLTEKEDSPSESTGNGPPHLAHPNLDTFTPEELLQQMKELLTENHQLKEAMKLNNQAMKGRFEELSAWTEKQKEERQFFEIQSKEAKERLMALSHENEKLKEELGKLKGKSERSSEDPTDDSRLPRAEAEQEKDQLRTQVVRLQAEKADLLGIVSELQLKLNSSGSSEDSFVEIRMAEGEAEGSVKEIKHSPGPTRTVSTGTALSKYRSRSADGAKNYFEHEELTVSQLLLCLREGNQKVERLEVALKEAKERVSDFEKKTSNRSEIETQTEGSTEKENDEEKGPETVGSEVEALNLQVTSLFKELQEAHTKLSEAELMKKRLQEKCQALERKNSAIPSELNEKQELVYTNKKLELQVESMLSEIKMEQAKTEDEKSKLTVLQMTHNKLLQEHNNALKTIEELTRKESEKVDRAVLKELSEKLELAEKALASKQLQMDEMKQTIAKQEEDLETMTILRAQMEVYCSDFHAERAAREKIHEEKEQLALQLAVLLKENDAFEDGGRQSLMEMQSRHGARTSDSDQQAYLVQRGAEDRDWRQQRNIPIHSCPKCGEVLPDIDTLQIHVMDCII
Test: co-IP
Settings: remark: other sources report otherwise

Binder | TBK1 bound to OPTN relative to wild type (relative to TBK1 WT)
B1 | 0.02
B2 | 0.27
